From the supplement of paper PMC9112550, “Optimization of the antimicrobial peptide Bac7 by deep mutational scanning” (BMC Biology, 2022) come the findings set out here.
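Note: peptides expressed intracellularly from a pBAD plasmid library in pooled LB shake-flask culture, induced with 0.3% L-arabinose, DNA abundance read by NGS, three biological replicates, DESeq2 with apeglm shrinkage.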

This series deals with Escherichia coli TOP10. Nature of the series: shrunken log2 fold change of peptide-encoding DNA abundance (4.5 h post-induction vs induction); higher = less antimicrobial activity (less host growth inhibition). The note with it: time post-induction: 4.5 h; library: site-saturation at positions 5, 18, 19, 20.
As for RRIRVRPPRLPRPRPRPNQKPRP, the “shrunken log2 fold change” value was -0.115.

Regarding RRIRNRPPRLPRPRPRPYQHPRP, the “shrunken log2 fold change” value is -0.549.

For the sequence RRIRQRPPRLPRPRPRPARMPRP, the “shrunken log2 fold change” value came out at 0.195.

Take RRIRHRPPRLPRPRPRPIDAPRP: the “shrunken log2 fold change” value was -0.105.

RRIRCRPPRLPRPRPRPLDEPRP: the “shrunken log2 fold change” value worked out at 0.151.

As to RRIRGRPPRLPRPRPRPRLYPRP, the “shrunken log2 fold change” value worked out at 0.291.

Regarding RRIRRRPPRLPRPRPRPVGSPRP, the “shrunken log2 fold change” value was 0.432.

As to RRIRPRPPRLPRPRPRPPQQPRP, the “shrunken log2 fold change” value came out at 0.345.

As to RRIRPRPPRLPRPRPRPTQDPRP, the “shrunken log2 fold change” value amounted to 0.833.

Consider RRIRARPPRLPRPRPRPHAKPRP, for which the “shrunken log2 fold change” value was -0.0556.

With RRIRFRPPRLPRPRPRPPHDPRP, the “shrunken log2 fold change” value amounted to 0.336.

For the sequence RRIRTRPPRLPRPRPRPRQCPRP, the “shrunken log2 fold change” value came to 0.153.

For RRIRERPPRLPRPRPRPHEHPRP, the “shrunken log2 fold change” value was -0.205.

Regarding RRIRGRPPRLPRPRPRPTLYPRP, the “shrunken log2 fold change” value turned out to be 0.598.

On to RRIRVRPPRLPRPRPRPPFEPRP, for which the “shrunken log2 fold change” value was found to be 0.26.

For RRIRMRPPRLPRPRPRPLSNPRP, the “shrunken log2 fold change” value is -0.0789.

On to RRIRRRPPRLPRPRPRPPCWPRP, for which the “shrunken log2 fold change” value turned out to be 0.325.

In the case of RRIRTRPPRLPRPRPRPFCFPRP, the “shrunken log2 fold change” value is -0.134.

With RRIRGRPPRLPRPRPRPMKMPRP, the “shrunken log2 fold change” value was determined as 0.00988.

Take RRIRYRPPRLPRPRPRPCVKPRP: the “shrunken log2 fold change” value is -0.0312.

For RRIRERPPRLPRPRPRPNDMPRP, the “shrunken log2 fold change” value was -0.0595.

On to RRIRIRPPRLPRPRPRPSFGPRP, for which the “shrunken log2 fold change” value is -0.389.

Regarding RRIRTRPPRLPRPRPRPQGSPRP, the “shrunken log2 fold change” value was -0.0161.

Turning to RRIRQRPPRLPRPRPRPQKMPRP, the “shrunken log2 fold change” value was -0.00813.

In the case of RRIRPRPPRLPRPRPRPDMAPRP, the “shrunken log2 fold change” value is -0.119.

For RRIRRRPPRLPRPRPRPIWPPRP, the “shrunken log2 fold change” value turned out to be 0.664.

With RRIRHRPPRLPRPRPRPDKHPRP, the “shrunken log2 fold change” value was -0.25.

Take RRIRIRPPRLPRPRPRPSYFPRP: the “shrunken log2 fold change” value was -0.83.

As to RRIRSRPPRLPRPRPRPRAHPRP, the “shrunken log2 fold change” value was determined as 0.409.

RRIRERPPRLPRPRPRPMHNPRP: the “shrunken log2 fold change” value was -0.437.

Regarding RRIRQRPPRLPRPRPRPCCWPRP, the “shrunken log2 fold change” value was determined as 0.0955.

Regarding RRIRMRPPRLPRPRPRPLENPRP, the “shrunken log2 fold change” value is 0.0866.

Take RRIRTRPPRLPRPRPRPIIRPRP: the “shrunken log2 fold change” value is -0.0034.

Regarding RRIRLRPPRLPRPRPRPCRMPRP, the “shrunken log2 fold change” value was -0.0411.

Take RRIRSRPPRLPRPRPRPCIQPRP: the “shrunken log2 fold change” value is -0.175.

As for RRIRDRPPRLPRPRPRPFRLPRP, the “shrunken log2 fold change” value is -0.0192.

On to RRIRPRPPRLPRPRPRPTEEPRP, for which the “shrunken log2 fold change” value amounted to 0.551.

For RRIRFRPPRLPRPRPRPIQRPRP, the “shrunken log2 fold change” value was -0.107.

For RRIRNRPPRLPRPRPRPQEWPRP, the “shrunken log2 fold change” value was -0.00211.

Regarding RRIRGRPPRLPRPRPRPYHSPRP, the “shrunken log2 fold change” value is -0.861.

For the sequence RRIRMRPPRLPRPRPRPEVYPRP, the “shrunken log2 fold change” value is -0.0346.

Consider RRIRRRPPRLPRPRPRPFAEPRP, for which the “shrunken log2 fold change” value stood at 0.61.

For RRIRWRPPRLPRPRPRPFSNPRP, the “shrunken log2 fold change” value is -0.258.

In the case of RRIRCRPPRLPRPRPRPCPVPRP, the “shrunken log2 fold change” value was -0.28.

On to RRIRRRPPRLPRPRPRPREEPRP, for which the “shrunken log2 fold change” value came out at 0.919.

In the case of RRIRARPPRLPRPRPRPQLGPRP, the “shrunken log2 fold change” value is -0.0732.

Consider RRIRWRPPRLPRPRPRPQIHPRP, for which the “shrunken log2 fold change” value is -0.681.

In the case of RRIRSRPPRLPRPRPRPQCRPRP, the “shrunken log2 fold change” value is -0.0553.

On to RRIRGRPPRLPRPRPRPYMYPRP, for which the “shrunken log2 fold change” value is -0.251.

Regarding RRIRFRPPRLPRPRPRPPWNPRP, the “shrunken log2 fold change” value is -0.128.

As for RRIRNRPPRLPRPRPRPWQTPRP, the “shrunken log2 fold change” value was 0.0295.

Take RRIRYRPPRLPRPRPRPMHWPRP: the “shrunken log2 fold change” value is -0.597.

As for RRIRYRPPRLPRPRPRPWYLPRP, the “shrunken log2 fold change” value was -0.268.

RRIRNRPPRLPRPRPRPYATPRP: the “shrunken log2 fold change” value was -0.145.

For RRIRGRPPRLPRPRPRPGFCPRP, the “shrunken log2 fold change” value was found to be 0.925.

Take RRIRRRPPRLPRPRPRPPRPPRP: the “shrunken log2 fold change” value stood at 1.01.

Consider RRIRERPPRLPRPRPRPLTEPRP, for which the “shrunken log2 fold change” value is -0.298.

On to RRIRWRPPRLPRPRPRPEWCPRP, for which the “shrunken log2 fold change” value came out at 0.386.

Take RRIRGRPPRLPRPRPRPFNWPRP: the “shrunken log2 fold change” value is 0.153.

As to RRIRFRPPRLPRPRPRPPAPPRP, the “shrunken log2 fold change” value is 1.07.

On to RRIRQRPPRLPRPRPRPNRFPRP, for which the “shrunken log2 fold change” value was -0.00894.

For RRIRMRPPRLPRPRPRPIGCPRP, the “shrunken log2 fold change” value was found to be 0.176.

As to RRIRERPPRLPRPRPRPPRGPRP, the “shrunken log2 fold change” value was 0.519.

Turning to RRIRIRPPRLPRPRPRPGDRPRP, the “shrunken log2 fold change” value was -0.123.

In the case of RRIRWRPPRLPRPRPRPESAPRP, the “shrunken log2 fold change” value stood at 1.15.

On to RRIRTRPPRLPRPRPRPCCHPRP, for which the “shrunken log2 fold change” value is -0.0132.

Turning to RRIRVRPPRLPRPRPRPQVMPRP, the “shrunken log2 fold change” value is -0.112.

As for RRIRLRPPRLPRPRPRPITCPRP, the “shrunken log2 fold change” value is -0.513.

Turning to RRIRIRPPRLPRPRPRPMHQPRP, the “shrunken log2 fold change” value was -0.121.

Take RRIRFRPPRLPRPRPRPDIAPRP: the “shrunken log2 fold change” value was 0.101.

For RRIRYRPPRLPRPRPRPMRTPRP, the “shrunken log2 fold change” value was 0.176.

RRIRMRPPRLPRPRPRPIPFPRP: the “shrunken log2 fold change” value was 0.146.

In the case of RRIRQRPPRLPRPRPRPDIDPRP, the “shrunken log2 fold change” value was -0.078.

As to RRIRCRPPRLPRPRPRPVQGPRP, the “shrunken log2 fold change” value was -0.0182.

On to RRIRTRPPRLPRPRPRPEIWPRP, for which the “shrunken log2 fold change” value amounted to 0.264.

With RRIRARPPRLPRPRPRPQARPRP, the “shrunken log2 fold change” value amounted to 0.233.

For RRIRCRPPRLPRPRPRPWTSPRP, the “shrunken log2 fold change” value was -0.419.

Take RRIRNRPPRLPRPRPRPCIFPRP: the “shrunken log2 fold change” value was -0.697.

Consider RRIRQRPPRLPRPRPRPIMHPRP, for which the “shrunken log2 fold change” value is -0.172.

As to RRIRDRPPRLPRPRPRPIYTPRP, the “shrunken log2 fold change” value was -0.105.

Regarding RRIRYRPPRLPRPRPRPEMKPRP, the “shrunken log2 fold change” value is 0.206.

Regarding RRIRARPPRLPRPRPRPSKKPRP, the “shrunken log2 fold change” value stood at 0.23.

Turning to RRIRQRPPRLPRPRPRPVCCPRP, the “shrunken log2 fold change” value was 0.161.

In the case of RRIRFRPPRLPRPRPRPRDNPRP, the “shrunken log2 fold change” value is -0.173.

Take RRIRDRPPRLPRPRPRPYNLPRP: the “shrunken log2 fold change” value is -0.0574.

With RRIRMRPPRLPRPRPRPQRIPRP, the “shrunken log2 fold change” value was -0.0462.

Regarding RRIRHRPPRLPRPRPRPGLSPRP, the “shrunken log2 fold change” value was -0.0763.

Regarding RRIRVRPPRLPRPRPRPHQDPRP, the “shrunken log2 fold change” value was -0.264.

Take RRIRERPPRLPRPRPRPVGGPRP: the “shrunken log2 fold change” value was determined as 0.21.

As to RRIRDRPPRLPRPRPRPAMFPRP, the “shrunken log2 fold change” value is -0.228.

On to RRIRNRPPRLPRPRPRPHTTPRP, for which the “shrunken log2 fold change” value was -0.235.

Turning to RRIRPRPPRLPRPRPRPSEEPRP, the “shrunken log2 fold change” value came out at 0.591.

As to RRIRERPPRLPRPRPRPLTRPRP, the “shrunken log2 fold change” value was determined as 0.167.

As for RRIRTRPPRLPRPRPRPVQFPRP, the “shrunken log2 fold change” value was -0.0192.

In the case of RRIRCRPPRLPRPRPRPVWSPRP, the “shrunken log2 fold change” value is -0.119.

Take RRIRSRPPRLPRPRPRPYDIPRP: the “shrunken log2 fold change” value was -0.0295.

Regarding RRIRHRPPRLPRPRPRPYVNPRP, the “shrunken log2 fold change” value was -0.0772.

On to RRIRRRPPRLPRPRPRPLEMPRP, for which the “shrunken log2 fold change” value turned out to be 0.181.

Take RRIRYRPPRLPRPRPRPTEMPRP: the “shrunken log2 fold change” value is -0.306.

Consider RRIRNRPPRLPRPRPRPIVSPRP, for which the “shrunken log2 fold change” value was -0.00673.

For RRIRERPPRLPRPRPRPKTKPRP, the “shrunken log2 fold change” value was -0.00738.

Take RRIRDRPPRLPRPRPRPNRWPRP: the “shrunken log2 fold change” value was determined as 0.0049.

For RRIRHRPPRLPRPRPRPKKQPRP, the “shrunken log2 fold change” value was -0.0264.

As for RRIRIRPPRLPRPRPRPHVDPRP, the “shrunken log2 fold change” value is -0.294.

For RRIRARPPRLPRPRPRPDGSPRP, the “shrunken log2 fold change” value turned out to be 0.0886.

On to RRIRYRPPRLPRPRPRPERLPRP, for which the “shrunken log2 fold change” value is -0.00207.

In the case of RRIRSRPPRLPRPRPRPETAPRP, the “shrunken log2 fold change” value turned out to be 0.667.

In the case of RRIRSRPPRLPRPRPRPFITPRP, the “shrunken log2 fold change” value is -0.798.

Consider RRIRYRPPRLPRPRPRPIVDPRP, for which the “shrunken log2 fold change” value is -0.268.

Take RRIRRRPPRLPRPRPRPFHTPRP: the “shrunken log2 fold change” value was -0.0624.

As to RRIRYRPPRLPRPRPRPMFDPRP, the “shrunken log2 fold change” value was -1.4.

In the case of RRIRTRPPRLPRPRPRPVEYPRP, the “shrunken log2 fold change” value was -0.122.

Consider RRIRGRPPRLPRPRPRPFQRPRP, for which the “shrunken log2 fold change” value was -0.0485.

As to RRIRSRPPRLPRPRPRPKYRPRP, the “shrunken log2 fold change” value stood at 0.127.

For the sequence RRIRYRPPRLPRPRPRPQLWPRP, the “shrunken log2 fold change” value stood at 0.0782.

Take RRIRKRPPRLPRPRPRPTVKPRP: the “shrunken log2 fold change” value is 0.19.

RRIRGRPPRLPRPRPRPHCDPRP: the “shrunken log2 fold change” value worked out at 3.63.

As for RRIRVRPPRLPRPRPRPASCPRP, the “shrunken log2 fold change” value was -0.0873.

Regarding RRIRARPPRLPRPRPRPDLIPRP, the “shrunken log2 fold change” value amounted to 0.235.

With RRIRYRPPRLPRPRPRPYCHPRP, the “shrunken log2 fold change” value is -0.435.

For RRIRTRPPRLPRPRPRPTGPPRP, the “shrunken log2 fold change” value amounted to 0.48.

Regarding RRIRNRPPRLPRPRPRPIENPRP, the “shrunken log2 fold change” value came out at 0.0211.

RRIRERPPRLPRPRPRPALAPRP: the “shrunken log2 fold change” value was found to be 0.432.

On to RRIRARPPRLPRPRPRPFPCPRP, for which the “shrunken log2 fold change” value came to 0.0215.

In the case of RRIRERPPRLPRPRPRPEMIPRP, the “shrunken log2 fold change” value was -0.0286.
